The values below come from patent US20150197559A1 (University of California, published 2015).

Test [1] has as its target T1, BoNT/B1 (Clostridium botulinum, UniProt P10844 2-1291).
T1 sequence: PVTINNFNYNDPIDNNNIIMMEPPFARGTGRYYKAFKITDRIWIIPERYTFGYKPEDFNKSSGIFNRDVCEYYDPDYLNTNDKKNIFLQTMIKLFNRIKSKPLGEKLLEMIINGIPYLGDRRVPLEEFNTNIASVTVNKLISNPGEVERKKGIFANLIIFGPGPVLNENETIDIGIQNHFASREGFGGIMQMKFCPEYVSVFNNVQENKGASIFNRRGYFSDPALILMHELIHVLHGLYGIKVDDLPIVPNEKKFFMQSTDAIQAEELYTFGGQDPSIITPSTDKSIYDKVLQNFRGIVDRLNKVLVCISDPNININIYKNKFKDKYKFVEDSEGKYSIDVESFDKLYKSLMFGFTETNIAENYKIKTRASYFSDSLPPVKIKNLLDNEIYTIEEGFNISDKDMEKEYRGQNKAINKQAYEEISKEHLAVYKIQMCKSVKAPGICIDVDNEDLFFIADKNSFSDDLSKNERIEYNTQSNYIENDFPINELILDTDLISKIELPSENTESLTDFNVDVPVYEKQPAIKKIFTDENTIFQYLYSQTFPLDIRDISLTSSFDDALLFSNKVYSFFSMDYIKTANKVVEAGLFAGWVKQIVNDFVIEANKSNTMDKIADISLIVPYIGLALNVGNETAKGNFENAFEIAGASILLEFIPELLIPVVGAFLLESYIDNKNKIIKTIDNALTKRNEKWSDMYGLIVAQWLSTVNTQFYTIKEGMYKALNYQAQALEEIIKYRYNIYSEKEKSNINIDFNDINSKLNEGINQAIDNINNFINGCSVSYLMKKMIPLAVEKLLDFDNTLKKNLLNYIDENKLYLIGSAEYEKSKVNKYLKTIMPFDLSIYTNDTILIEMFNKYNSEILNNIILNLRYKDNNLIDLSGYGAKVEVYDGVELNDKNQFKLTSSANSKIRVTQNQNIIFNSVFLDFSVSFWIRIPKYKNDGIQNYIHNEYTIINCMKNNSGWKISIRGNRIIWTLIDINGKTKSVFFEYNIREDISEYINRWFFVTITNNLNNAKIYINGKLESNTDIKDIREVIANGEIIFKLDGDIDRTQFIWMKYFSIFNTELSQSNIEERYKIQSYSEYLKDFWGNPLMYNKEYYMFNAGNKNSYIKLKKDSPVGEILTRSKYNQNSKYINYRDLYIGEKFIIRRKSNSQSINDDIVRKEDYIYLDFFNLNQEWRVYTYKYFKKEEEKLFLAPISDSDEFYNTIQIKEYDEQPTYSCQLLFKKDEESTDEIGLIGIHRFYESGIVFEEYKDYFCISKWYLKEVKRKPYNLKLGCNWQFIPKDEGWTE
The experiment in a line: flow cytometry, yeast-displayed scFv, soluble toxin.

For test [2], the target named is T1, BoNT/B1. The description is as above. The source holds these as a separate data set.
In test [3] the target is T1, BoNT/B1. As to the kind of experiment: flow cytometry, yeast-displayed Fab, soluble toxin.
For test [4], the target named is T1, BoNT/B1. As to the kind of experiment: yeast-displayed Fab against parental B6 scFv, flow cytometry. A general note: A flow cytometer gives signals particle by particle.
Test [5] concerns the target T1, BoNT/B1. As to the kind of experiment: flow cytometry, yeast-displayed scFv, soluble toxin. The source holds these as a separate data set.
Test [6] deals with T1, BoNT/B1. As to the kind of experiment: KinExA flow fluorimetry, IgG in solution. Background: A kinetic exclusion assay measures how much of one partner remains free in solution.
In test [7] the target is T1, BoNT/B1.

B1: B11E8 scFv (scFv)
scFv: EVQLVQSGGGVVQPGRSLRLSCAASGFIFRTYGMHWVRQAPGKGLEWVAFVSSDGNNKFYSDSVKGRFTISRDNAKNTLYLQMNSLETEDTAMYYCAKDRYPIDCSGGSCFSYGMDVWGQGTTVTVSSGGGGSGGGGSGGGGSEIVLTQSPATLSVSPGERATLSCRASQSVSKFLAWYQQKRGQAPRLLIYGASTRATGIPARFSGSGSGTEFALTISSLQSEDFADYYCQQYDNWPITFGQGTRLEIK
Broadly, the Kd is the concentration at which binding is half-saturated. B1: in the test with BoNT/B1 [1], the Kd turned out to be 193 pM. This lies in the sub-nanomolar range.

B2: 4B6 scFv (scFv)
scFv: QVQLVQSGAEVKKPGESLVISCKASGDKDTFTSFWIAWVRQMPGKGLEWMGIIYAGDSDTRYSPSFQGHVNISVDRSTNTAYLQWSSLKASDTAMYYCARHDSRYKYFYFGMDVWGQGTTVTVSSGGGGSGGGGSGGGGSDVVMTQSPSSLSASVGDRITITCQAGQDISNFLNWYQQKPGKAPKLLIRDASNLETGVPSRFSGGGSGTHFTFTISSLHPEDIATYFCQQYDNLPYTFGQGTKLEIK
B2 had a Kd with BoNT/B1 [2] of 2700 pM.

B3: 4B7 scFv (scFv)
scFv: QVQLQQSGPGLVKPSQTLSLTCSVSGGSINSDGSYWSWVRQHPGKGLEWIGYIYYSGTTYFNPSLKSRLTMSVDTSKNQFSLKMTSVTAADTAVYYCARMSGSRSYSQYYFDSWGQGTLVTVSSGGGGSGGGGSGGGGSDIQMTQSPSSLSASVGDRVTITCRASQSISSYLNWYQQKPGTAPKLLISDASTLQSGVPSRFSGSGSGTEFTLTISNLQPEDFATYYCQQFNSYVWTFGQGTKLEIK
The molecule B3 returned a Kd with BoNT/B1 [2] of 29400 pM.

B4: B6.C12 Fab (Fab, V domains shown)
VH: QVQLVQSGAEVKKPGESLVISCKASGDKDTFTSFWIAWVRQMPGKGLEWMGIIYAGDSDTRYSPSFQGHVNISVDRSTNTAYLQWSSLKASDTAMYYCARHDSRYKYFYFGMDVWGQGTTVTVSS
VL: DIVMTQSPSSLSASVGDRVTITCRASQSISSYLNWYQQKPGKAPKLLIYAASSLQSGVPSRFSGSGSGTDFTLTISSLQPEAFATYYCQQSYTAPCTFGQGTKLEIK
For the molecule B4, binding in the test with BoNT/B1 [3] was characterised by a dissociation constant (Kd) of 405 pM. Moreover, the “KD wild type/KD matured” value with BoNT/B1 [4] stood at 7 fold.

B5: B6.D2 Fab (Fab, V domains shown)
VH: B4 VH
VL: DVVMTQSPCLPCLHLIGDRVTITCRASQSIRDYLSWYQQEPGKAPKLLIYSASSLQSGVPSRFSGSGSGTDFTLTITNLQPEDFATYYCLEKYSFPRCTFGQGTKLDIKR
Turning to B5, binding in the test with BoNT/B1 [3] was put at a Kd of 254 pM. The “KD wild type/KD matured” value with BoNT/B1 [4] is 11 fold.

B6: 1B10 scFv (scFv)
scFv: QVQLVESGGGVVQPGRSLRLSCAASGFTFSHYGMHWVRQSPGKGLEWVAVIWYDGRNPYYAASVKGRFTISRDNDKNTLYLQMNSLRAEDTAVYYCVKDLTRFHDTTFGVFEMWGPGTTVTVSSGGGGSGGGGSGGGGSEIVLTQSPSSLSASVGDRITITCRASQSISSWLAWYQQKPGKAPMVLIYKASSLENGVPSRFSGSGSGTEFTLTISSLQPDDFATYYCQQYSTYSRTFGQGTKVEIK
Molecule B6 gave a Kd with BoNT/B1 [2] of 11200 pM. This lies in the double-digit nanomolar range.

B7: 2B24 scFv (scFv)
scFv: QVQLVESGGGVVQPGRSLRLSCAASGLTFSVYGMHWVRQAPGKGLEWVAVISHTGSEEYYADSVKGRFSISRDNSNNTLFLQMNSLRPEDTAVYYCVKDGPMAAIPFYYFDFWGQGTLVTVSSGGGGSGGGGSGGGGSQSVVTQPPSVSAAPGQKVTISCSGSSSNIGNNYVSWYQQLPGTAPKLLIYDNNKRPSGIPDRFSGSKSGTSATLGITGLQTGDEADYYCGTWDSSLSAGVFGGGTKLTVL
In the test with BoNT/B1 [2], B7 registered a Kd of 790 pM.

B8: 1B22 scFv (scFv)
scFv: QVQLQESGSRLVKPSQTLSLTCGVSGGSISSSSYSWSWIRQTPGKGLEWIGYIYHSGSTYYNPSLKSRVTMSVDKSRNQFSLNMSSVTAADTAVYYCARTAFYYENTGPIRCYLDFWGQGTLVTVSSGGGGSGGGGSGGGGSDIQMTQSPSTLSASIGDRVTISCRASQSIQSWLAWYQQRPGEAPKLLIYSASTLQTGVPSRFSGSGSGTDFTLTISSLQPEDFATYYCQQYNSYPLTFGQGTKLEIK
Consider B8, for which the Kd came to 520 pM in the test with BoNT/B1 [2] and 515 pM with BoNT/B1 [5].

B9: 2B25 scFv (scFv)
scFv: QVQLQESGPGLVKPSQTLSLSCSVSGASITSGTFYWSWIRQHPGKDLEWIGYIYYSGTTYYNPSLKSRVTLSVDTSKNQFSLKVTSLTAADTAVYHCARGVPIYDSSGTYRGTYFDYWGQGTLVTVSSGGGGSGGGGSGGGGSQPGLTQPPSASGTPGQRVTISCSGSSSNVGSNTVNWYQQLPGTAPKLLIYRNDQRPSGVPDRFSGSKSGASASLAISGLRSEDEADYYCAAWDDSLNGLLFGGGTQLTVL
In the test with BoNT/B1 [2], B9 registered a Kd of 950 pM. In other words, the sub-nanomolar range.

B10: 2B23 IgG (antibody, V domains shown)
VH: EVQLLESGGGLVQPGGSLRLSCAASGFTFSNYPMSWVRQAPGKGLAWVSSLTASGDNTFYADSVKGRFTISRDNSNNTLYLQMHSLRAEDTAVYYCAKALVGRYDISTGYYRPVMDSWGQGTLVTVSS
VL: DIQMTQSPPSLSASVGDRVTITCRTSQGFTSALAWYQQKPGEPPKLLIYDASKLESGVPSRFSGSGSGTNFALTISSLQPEDFATYFCQQSNSYPLTFGGGTKVEIKR
Take B10: the Kd in the test with BoNT/B1 [6] turned out to be 38.2 pM.

B11: 1B22 IgG (antibody, V domains shown)
VH: QVQLQESGSRLVKPSQTLSLTCGVSGGSISSSSYSWSWIRQTPGKGLEWIGYIYHSGSTYYNPSLKSRVTMSVDKSRNQFSLNMSSVTAADTAVYYCARTAFYYENTGPIRCYLDFWGQGTLVTVSS
VL: DIQMTQSPSTLSASIGDRVTISCRASQSIQSWLAWYQQRPGEAPKLLIYSASTLQTGVPSRFSGSGSGTDFTLTISSLQPEDFATYYCQQYNSYPLTFGQGTKLEIK
B11: the “fold increase in affinity, IgG against parental scFv” value in the test with BoNT/B1 [7] is 1.5 to 25 fold. The same molecule showed a Kd with BoNT/B1 [6] of 335 pM.

B12: 2B23 scFv (scFv)
scFv: EVQLLESGGGLVQPGGSLRLSCAASGFTFSNYPMSWVRQAPGKGLAWVSSLTASGDNTFYADSVKGRFTISRDNSNNTLYLQMHSLRAEDTAVYYCAKALVGRYDISTGYYRPVMDSWGQGTLVTVSSGGGGSGGGGSGGGGSDIQMTQSPPSLSASVGDRVTITCRTSQGFTSALAWYQQKPGEPPKLLIYDASKLESGVPSRFSGSGSGTNFALTISSLQPEDFATYFCQQSNSYPLTFGGGTKVEIK
With B12, the Kd with BoNT/B1 [2] is 80 pM; with BoNT/B1 [5], 79 pM.

B13: 2B30 scFv (scFv)
scFv: EVQLVESGGGVVQPGRSLRLSCAASGFTFRRNAIHWVRQAPGKGLEWVAVISYDGVNKYYAASVKGRFAISRDNAKNTLFLQMNSLRPEDSAIYYCARDVSEYGDYVGHFDYWGQGTLVTVSSGGGGSGGGGSGGGGSSYELMQLPSASGTPGQRVSISCSGSSSNIGSNPVNWYQQLPGTAPKLLIYSNNHRPSGVPDRFSGSKSGTSASLAISGLQSEDEADYYCAAWDGSLNGHVVFGGGTKLTVL
In the test with BoNT/B1 [2], B13 came in with a Kd of 370 pM.

B14: 1B18 scFv (scFv, V domains shown)
VH: EVQLVQSGGGLVQPGGSRRLSCAASGFYFNAYWMTWVRQAPGKGLEWVANINLDGTEIYYLDSVKGRFTVSRDNVKNSVFLQMSSLRVEDTAVYFCARLEWGGRNGWVSPWGQGTLVTVSS
VL: DVVMTQSPSSVSASVGDRVTITCRASQSISSYLNWYQQRPGKAPKLLIFAASSLQSAVPSRFSGSGSGTDFTLTISSLQPEDFATYYCQQSYSTPPTFGQGTKVEIKR
For the molecule B14, the Kd with BoNT/B1 [2] and in the test with BoNT/B1 [5] was 7300 pM each time.

B15: 1B18 IgG (antibody, V domains shown)
VH: B14 VH
VL: B14 VL
Consider B15, for which the Kd in the test with BoNT/B1 [6] came out at 816 pM.
